Source: patent publication US20250304707A1

B1: human BCMA (soluble analyte of Examples 8 and 14), Q02223 1-54 (receptor, UniProt Q02223 1-54, looked up)
chain: MLQMAGQCSQNEYFDSLLHACIPCQLRCSSNTPPLTCQRYCNASVTNSVKGTNA
B2: 01-024 (scFv) (scFv, part only; not given: linker, domain order, Myc-His tags, V domains shown, not shown: another chain or arm of the molecule; small tags and cut ends)
VH: EVQLVQSGGGLVQSGGSLRVSCAASGFTFSSGLMSWVRQAPGKGFEWVSCYNGGSDRAGYTDSVKGRFTISRDNAKNTLYLQMNSLKPEDTAVYYCARYIANSGTYYWDYWGQGTTVTVSS
VL: QAVLTQPPSASGTPGQRVSISCSGGISNIGSNIVNWYQHLPGTAPKLLIYSGNQRPSGVPDRFSGSKSGTSASLAISGLQSEDEADYYCSSWDSDLRNWVFGGGTKLTVL
B3: 01-025 (scFv) (scFv, part only; not given: linker, domain order, Myc-His tags, V domains shown, not shown: another chain or arm of the molecule; small tags and cut ends)
VH: EVQLVQSGGGLVQSGGSLRVSCAASGFTFSSGLMSWVRQAPGKGFEWVSGYNGGSDRAGYTDSVKGRFTISRDNAKNTLYLQMNSLKPEDTAVYYCARYIANSGTYYWDYWGQGTTVTVSS
VL: QPVLTQPPSVSEAPRQRVTISCSGSSSNIGNNAVNWYQQLPGKAPKLLIYSTNQRPSGVPDRFSGSKSGTSASLAISGLQSEDEADYYCAAWDDRVSAWLFGGGTKLTVL
B4: 01-026 (scFv) (scFv, part only; not given: linker, domain order, Myc-His tags, V domains shown, not shown: another chain or arm of the molecule; small tags and cut ends)
VH: EVQLVQSGGGLVQSGGSLRVSCAASGFTFSSGLMSWVRQAPGKGFEWVSGYNGGSDRAGYTDSVKGRFTISRDNAKNTLYLQMNSLKPEDTAVYYCARYIANSGTYYWDYWGQGTTVTVSS
VL: QSVLTQPPSVSGAPGQRVTISCTGSSSNIGAGYDVHWYQQLPGTAPKLVIYGNTNRPSGVPDRFSGSKSGTSASLAISGLQSEDEADYYCAAWDDSLNGWVFGGGTKLTVL
B5: 01-027 (scFv) (scFv, part only; not given: linker, domain order, Myc-His tags, V domains shown, not shown: another chain or arm of the molecule; small tags and cut ends)
VH: EVQLVQSGGGLVQSGGSLRVSCAASGFTFSSGLMSWVRQAPGKGFEWVSGYNGGSDRAGYTDSVKGRFTISRDNAKNTLYLQMNSLKPEDTAVYYCARYIANSGTYYWDYWGQGTTVTVSS
VL: QAVLTQPPSASGTPGQRVSISCSGGISNIGSNIVNWYQHLPGTAPKLLIYSGNQRPSGVPDRFSGSKSGTSASLAISGLQSEDEADYYCSSWDSDLRNWVFGGGTKLTVL
B6: 01-030 (scFv) (scFv, part only; not given: linker, domain order, Myc-His tags, V domains shown, not shown: another chain or arm of the molecule; small tags and cut ends)
VH: EVQLVQSGGGLVQPGGSLRVSCAASGFSFSSGLMSWVRQAPGKGFEWVSGYNGGSDRAGFADSVEGRFTISRDNAKNTLYLQMNSLKPEDTAVYYCARYIANSGTYYWDYWGQGTLVTVSS
VL: QSALTQPPSASGTPGQRVTISCSGSISNIGSNTVNWYQHLPGTAPKLLIYNHNQRPSGVPDRFSGSTSGTSASLAISGLQSEDEADYFCATWDDSLSAWLFGGGTKLTVL

Target: T1, human APRIL/TNFSF13 (human), O75888
T1 chain: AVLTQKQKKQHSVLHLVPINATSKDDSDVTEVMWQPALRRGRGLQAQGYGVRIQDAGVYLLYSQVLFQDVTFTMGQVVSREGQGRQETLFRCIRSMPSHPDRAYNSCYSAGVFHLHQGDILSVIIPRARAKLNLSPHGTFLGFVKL
Assay: BLI (Octet RED384), APRIL/TNFSF13 on AR2G sensors, 71 nM human BCMA analyte, no antibody
Settings: remark: other sources report otherwise
B1 was tested, and the Response was 0.659 nm.

Each binder was assayed against biotinylated human BCMA (human) (UniProt Q02223) (assay: BLI (Octet RED384), biotinylated human BCMA on SAX sensors, scFv 1200 nM analyte, 1:1 model). Settings: not given.
With B2 the Kd was 1.5 nM, the Response was 0.174 nm and the koff was 0.00057 s⁻¹. For the same binder, the kon was 380000 M⁻¹ s⁻¹. In the case of B3, the Kd is reported as 15.5 nM, the Response is reported as 0.183 nm and the koff is reported as 0.00128 s⁻¹. The kon was 82600 M⁻¹ s⁻¹. With B4 the Kd was 59.6 nM, the Response was 0.115 nm and the koff was 0.00248 s⁻¹. The kon was 41700 M⁻¹ s⁻¹. Work on B5 yielded a Kd of 3.38 nM, a Response of 0.171 nm and a koff of 0.00096 s⁻¹. The kon was 284000 M⁻¹ s⁻¹. B6 was tested, and the Kd was 8.42 nM, the Response was 0.172 nm and the koff was 0.000939 s⁻¹. It also gave a kon of 112000 M⁻¹ s⁻¹.
